Results: patent US20220226430A1
Several values for one entry are separate records, joined by “and”; a condition that tells them apart may be missing. Equal values may be shown once.

Molecular target: TcdB from C. difficile strain M68 (Clostridium difficile strain M68)
Assay: cell-based or functional assay

B1: dimeric DARPin U3D16 (designed binder)
chain: GSDLGKKLLEAARAGQDDEVRILMANGADVNADDRIGMTPLHLAAIGGHLEIVEVLLKNGADVNADDVHGRTPLHLAAGRGHLEIVEVLHGADVNAPDRWGRTPLHLAAHHGHLEIVEVLLKYGADVNAQDKFGKTAFDISIDSGNEDLAEILQSSSGGGGSGGGGSGGGGSGSDLGKKLLEAARAGQDDEVRILMANGADVNAADRYGPTPLHLAAYRGHLEIVEVLLKHGADVNAKDVLGWTPLHLAAWIGHLEIVEVLLKNGADVNARDRTGETPLHLAAAIGHLEIVEVLLKNGADVNAQDKFGKTAFDISIDNGNEDLAEILQSSS
For B1, the fold higher neutralization activity than D16 alone was 10 fold and 20 fold.

B2: DARPin dimer DLD-4 (designed binder)
chain: GSDLGKKLLEAARAGQDDEVRILMANGADVNADDRIGMTPLHLAAIGGHLEIVEVLLKNGADVNADDVHGRTPLHLAAGRGHLEIVEVLHGADVNAPDRWGRTPLHLAAHHGHLEIVEVLLKYGADVNAQDKFGKTAFDISIDNGNEDLAEILQSSSEFGGGGSGGGGSGGGGSASDLGKKLLEAARAGQDDEVRILMANGADVNATDHLGVTPLHLAAVLGHLEIVEVLLKHGADVNAYDILGRTPLHLAAWRGHLEIVEVLLKYGADVNADDTSGTTPLHLAAGEGHLEIVEVLLKYGADVNAQDKFGKTAFDISIDNGNEDLAEILQSSS
B2 was tested, and the EC50 against TcdB (in vitro neutralization) was 0.02 nM, the TcdB neutralization EC50 (Vero cells, CellTiterGlo) was 0.016 nM and the fold more efficacious than bezlotoxumab at inhibiting TcdB (CellTiter-Glo assay) was 33 fold.
